Results as given in article PMC6825169, “Extracellular vesicle integrins act as a nexus for platelet adhesion in cerebral microvessels” (Scientific Reports, 2019).
Bridges are numbered along the chain shown (N, C = ends).

Molecular target: integrin αvβ3 (mouse (endogenous in mouse middle …, UniProt P43406 31-1044; O54890 26-787)
Experiment: cell-based or functional assay

Chain of integrin αvβ3 (mouse (P43406 31-1044, chain 1 of 2): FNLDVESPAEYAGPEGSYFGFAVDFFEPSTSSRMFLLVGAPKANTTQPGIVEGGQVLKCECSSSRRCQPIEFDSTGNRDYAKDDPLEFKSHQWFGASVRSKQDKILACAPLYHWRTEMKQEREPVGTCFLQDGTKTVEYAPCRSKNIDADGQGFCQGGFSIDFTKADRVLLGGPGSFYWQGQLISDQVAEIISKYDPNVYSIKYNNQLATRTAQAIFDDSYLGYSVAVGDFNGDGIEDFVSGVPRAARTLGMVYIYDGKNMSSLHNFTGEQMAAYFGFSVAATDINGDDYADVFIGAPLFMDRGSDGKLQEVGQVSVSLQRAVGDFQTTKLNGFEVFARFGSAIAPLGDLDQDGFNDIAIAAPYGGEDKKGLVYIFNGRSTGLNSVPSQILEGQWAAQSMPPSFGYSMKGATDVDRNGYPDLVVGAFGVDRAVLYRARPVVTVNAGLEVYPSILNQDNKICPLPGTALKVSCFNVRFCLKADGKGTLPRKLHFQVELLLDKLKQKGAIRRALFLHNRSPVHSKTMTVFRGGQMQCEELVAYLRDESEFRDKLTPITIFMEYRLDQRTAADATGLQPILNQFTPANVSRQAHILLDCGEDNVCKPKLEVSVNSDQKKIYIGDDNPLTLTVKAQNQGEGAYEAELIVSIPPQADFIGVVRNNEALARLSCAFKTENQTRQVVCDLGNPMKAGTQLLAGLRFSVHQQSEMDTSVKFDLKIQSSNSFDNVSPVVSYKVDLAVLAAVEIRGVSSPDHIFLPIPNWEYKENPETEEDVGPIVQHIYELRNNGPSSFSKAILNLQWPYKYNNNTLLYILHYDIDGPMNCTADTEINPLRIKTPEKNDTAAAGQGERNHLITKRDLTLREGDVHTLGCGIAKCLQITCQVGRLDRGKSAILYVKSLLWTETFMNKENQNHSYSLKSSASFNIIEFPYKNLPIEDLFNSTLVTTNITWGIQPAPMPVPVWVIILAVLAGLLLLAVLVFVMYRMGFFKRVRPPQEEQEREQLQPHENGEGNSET
Chain of integrin αvβ3 (mouse (O54890 26-787, chain 2 of 2): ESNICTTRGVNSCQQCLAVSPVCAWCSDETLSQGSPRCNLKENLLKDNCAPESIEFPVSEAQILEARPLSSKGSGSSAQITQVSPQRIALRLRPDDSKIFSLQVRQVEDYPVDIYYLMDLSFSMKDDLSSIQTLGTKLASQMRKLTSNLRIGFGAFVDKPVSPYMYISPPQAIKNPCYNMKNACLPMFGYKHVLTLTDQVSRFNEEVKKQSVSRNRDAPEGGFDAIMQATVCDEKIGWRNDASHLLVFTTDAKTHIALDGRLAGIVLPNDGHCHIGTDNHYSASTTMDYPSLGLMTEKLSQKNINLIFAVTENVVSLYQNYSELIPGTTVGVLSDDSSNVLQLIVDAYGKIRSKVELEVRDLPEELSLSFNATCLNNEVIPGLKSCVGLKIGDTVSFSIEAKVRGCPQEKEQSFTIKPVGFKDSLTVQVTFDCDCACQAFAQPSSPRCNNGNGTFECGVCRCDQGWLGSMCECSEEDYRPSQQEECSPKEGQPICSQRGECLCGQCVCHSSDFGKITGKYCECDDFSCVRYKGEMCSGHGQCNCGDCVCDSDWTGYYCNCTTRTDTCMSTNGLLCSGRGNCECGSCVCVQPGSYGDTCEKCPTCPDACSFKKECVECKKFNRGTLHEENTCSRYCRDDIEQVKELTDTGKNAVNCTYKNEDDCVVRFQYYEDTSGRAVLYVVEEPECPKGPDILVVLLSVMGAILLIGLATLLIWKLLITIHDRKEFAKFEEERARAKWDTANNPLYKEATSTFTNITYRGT

H-GCRGDC-NH2 (disulfide 2-6 (inferred)) [H-GCRGDC-NH2 (cRGD)]
adherence of CFSE-labelled washed platelets to the luminal surface of the MCA under flow after cRGD-MPs, compared to cRGD peptide alone: 3 fold
